Laboratory results as given in the RNAGym collection of RNA variant scans (doi:10.7554/elife.90254).

B1: LINE1-mini (parent)
chain: GGCAGAGCUCAACACAGCGUGGCAAAGUGGCUGUGGCUAGACUGCC

Variants of: B1
Assay: self-cleavage, relative activity (ratio to wild type); higher = more cleavage; in vitro, sequencing; the parent is a self-cleaving ribozyme

| Variant | self-cleavage |
| --- | --- |
| G19A U28G | 1.04 |
| A12C C23A | 0.02 |
| G22C G35C | 0.08 |
| A11C G21C | 0.08 |
| C37A U38A | 0.04 |
| A25G U34C | 0.07 |
| G19C G33U | 0.34 |
| C8G A39U | 0.04 |
| A16G C18A | 0.16 |
| U20C G40A | 0.09 |
| G19C G21A | 0.51 |
| C3G A6C | 0.27 |
| G7A A39C | 0.08 |
| C13G U32C | 0.07 |
| G22C A41U | 0.72 |
| A14C U34C | 0.07 |
| A12C G22U | 0.02 |
| G35C A39U | 0.06 |
| A26C U38A | 1.02 |
| A6U C23A | 0.9 |
| G22C U43A | 0.12 |
| G29A U32G | 0.46 |
| U28A U38A | 0.38 |
| A16G C31A | 0.03 |

| Variant | self-cleavage |
| --- | --- |
| G1U A26G | 0.31 |
| A16G U28A | 0.53 |
| G17U G19C | 1.08 |
| G2U A16U | 0.02 |
| C18G G27C | 0.38 |
| C13U U43C | 0.1 |
| G5U A41C | 0.07 |
| G21A G35A | 0.15 |
| U34G C45U | 0.19 |
| A6G G33A | 0.06 |
| C3A C13U | 1.71 |
| A6U A12U | 0.17 |
| A12C U34C | 0.03 |
| A14U A16C | 0.1 |
| U34G C42U | 0.1 |
| C3U G21A | 1.19 |
| G2C C37A | 0.06 |
| U32C G33C | 0.04 |
| G35C C46G | 0.06 |
| A25G C42A | 0.09 |
| A11C U28A | 0.06 |
| G5C G7U | 0.25 |
| G7C U38A | 0.07 |
| G35U C45A | 0.12 |

| Variant | self-cleavage |
| --- | --- |
| C15A U28A | 0.1 |
| G27C G33C | 0.04 |
| G2C A14G | 0.03 |
| A16U G40C | 0.05 |
| U20A C45G | 0.21 |
| C3G A16G | 0.23 |
| A4G A26G | 0.48 |
| A26G G35U | 0.16 |
| C15G A25C | 0.02 |
| G22A U32G | 0.14 |
| G29C G35A | 0.13 |
| C13A G29A | 0.19 |
| A4G G21A | 1.05 |
| G1C U43C | 0.03 |
| C13A U38C | 0.1 |
| G30A U32G | 0.41 |
| G1A G21C | 2.09 |
| A26G U34A | 0.04 |
| G1C G33U | 0.04 |
| G19C G27U | 0.43 |
| A4C C13A | 0.15 |
| U32A G33C | 0.08 |
| A14G C37U | 0.19 |
| A12G C18A | 0.03 |

| Variant | self-cleavage |
| --- | --- |
| C13G C46G | 0.19 |
| A4G U28G | 0.3 |
| C3U G36C | 0.19 |
| U32C A39G | 0.07 |
| C23U U28A | 0.82 |
| A6G C46A | 0.13 |
| G5C G44C | 0.04 |
| A41G G44A | 0.08 |
| G22A A25C | 0.8 |
| U38C U43A | 0.04 |
| U20A G35C | 0.05 |
| G5A A25U | 0.12 |
| G1A C37G | 0.04 |
| A24G C31U | 0.29 |
| U43A C46A | 0.1 |
| C15A C23A | 0.18 |
| C23A G36U | 0.06 |
| U9A G35U | 0.09 |
| G2A C13G | 0.45 |
| C13U A24U | 0.16 |
| A11C G17C | 0.02 |
| A24U A41C | 0.07 |
| A6G C37U | 0.03 |
| C31U G44C | 0.07 |

| Variant | self-cleavage |
| --- | --- |
| A11C | 0.08 |
| C8U U38G | 0.04 |
| G1U G35A | 0.08 |
| G35C G44C | 0.05 |
| G27U C46U | 1.05 |
| G21A G27A | 1.01 |
| A6C A39U | 0.68 |
| G5U A41U | 0.08 |
| A26G G35C | 0.1 |
| G7C U34A | 0.05 |
| G2C G7U | 0.28 |
| A24G A26C | 1.06 |
| G2C G36C | 0.04 |
| G21C A39U | 0.81 |
| G17A A25U | 0.24 |
| G7U G40U | 0.18 |
| U20C C46G | 0.47 |
| C13G U20C | 0.1 |
| G1C A24G | 0.29 |
| G2C G44U | 0.14 |
| A11U C23U | 0.1 |
| C8A G40U | 0.34 |
| A14U G35U | 0.12 |
| A14G U34C | 0.61 |

| Variant | self-cleavage |
| --- | --- |
| C10U A12G | 0.02 |
| C18A G44C | 0.22 |
| G2U U43A | 0.04 |
| G1C U28A | 0.04 |
| C8U G29U | 0.46 |
| C3A G44C | 0.86 |
| A12G C42U | 0.07 |
| G44C C46A | 0.1 |
| A25G U28G | 0.57 |
| C15A U32C | 0.07 |
| G2A A24U | 0.86 |
| A12U C13A | 0.21 |
| A12C U43C | 0.01 |
| C37U U38G | 0.03 |
| G7A A24G | 0.16 |
| G5U A24G | 0.19 |
| G29A G36A | 0.11 |
| A11U G40U | 0.04 |
| U28G U34A | 0.26 |
| G7C C18G | 0.09 |
| A11U G35A | 0.04 |
| G35U C46U | 0.1 |
| C8A A11G | 0.04 |
| C3A A4C | 0.25 |

| Variant | self-cleavage |
| --- | --- |
| C10U G22U | 0.42 |
| U9A G33U | 0.07 |
| C13G A25G | 0.11 |
| A6U A24U | 1.6 |
| C8U G40U | 0.29 |
| C3U C10A | 0.05 |
| G2A U34A | 0.18 |
| C31G C46G | 0.04 |
| G29U C46G | 0.93 |
| A12U A25C | 0.22 |
| G21U G35A | 0.16 |
| C10G G35A | 0.03 |
| A4U C8G | 0.09 |
| A16U G22A | 0.42 |
| G2A G30C | 0.51 |
| A24C A41C | 0.04 |
| G19U G22C | 0.5 |
| G21A G29C | 0.63 |
| C42A G44C | 0.12 |
| U9A A16G | 0.11 |
| U9C A26U | 0.11 |
| G2C A12U | 0.12 |
| A12C G30U | 0.01 |
